Source: doi:10.1101/2025.10.29.685445 (2025)

Tests used:
[1] = biological target: HCoV-OC43 S1-CTD (residues 318-608), Fc- and His-tagged (HCoV-OC43); assay: SPR
[2] = biological target: T1, HCoV-HKU1 RBD (residues 310-606 of isolate N5), Fc- and His-tagged (HCoV-HKU1 (isolate N5), UniProt Q0ZME7 310-606); assay: SPR
T1 chain: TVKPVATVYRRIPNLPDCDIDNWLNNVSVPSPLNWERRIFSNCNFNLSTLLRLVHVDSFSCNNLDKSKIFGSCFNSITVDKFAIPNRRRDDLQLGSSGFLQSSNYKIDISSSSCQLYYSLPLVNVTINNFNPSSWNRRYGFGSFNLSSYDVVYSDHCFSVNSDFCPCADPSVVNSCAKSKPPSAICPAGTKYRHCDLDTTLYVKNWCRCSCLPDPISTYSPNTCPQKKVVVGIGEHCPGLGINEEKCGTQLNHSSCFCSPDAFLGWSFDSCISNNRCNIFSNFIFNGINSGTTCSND

H501-013 = assay: BLI
H501-016 = assay: BLI
H501-020 = assay: BLI
H501-012 = assay: BLI
H501-015 = assay: BLI
H501-009 = assay: BLI
H501-003 = assay: BLI

B1: H501-008 Fab (Fab, V domains shown)
VH: QVQLVQSGGGVVQPGRSLRLSCAVSGFTLDRYAMHWVRQAPGKALEWVALMSADGREQYYAESVKGRFTFSRDSSKNTLYLQMHNLRTDDSSVYFCAREGPMYYDAWSGRSYYNNYALDVWGRGTTVAVSS
VL: QSVLTQPPSVSAAPGQTVTISCSGSSSNIGDNYVSWYQQVPGTAPRLLVYDNNRRPLGIPDRFSGSKSGTSATLAIAGLQTGDEADYYCGTWDSSLSAGVFGGGTKLTVV
- koff [1]: 0.042 s⁻¹
- koff [2]: 0.000197 s⁻¹

B2: HCoV-HKU1 RBD (residues 310-606 of isolate N5), as used in BLI (domain or fragment)
chain: T1 chain
- Kd (H501-013): 0.915 nM
- koff (H501-013): 0.000209 s⁻¹
- Kd (H501-016): 0.176 nM
- koff (H501-016): 3.26e-05 s⁻¹
- Kd (H501-020): < 0.001 nM
- koff (H501-020): < 1e-07 s⁻¹
- Kd (H501-012): 1.87 nM
- koff (H501-012): 0.000326 s⁻¹
- Kd (H501-015): 0.568 nM
- koff (H501-015): 0.000117 s⁻¹
- Kd (H501-009): 5.44 nM
- koff (H501-009): 0.000383 s⁻¹
- Kd (H501-003): 0.508 nM
